# B1: Coprinopsis cinerea galectin CGL1 (natural protein)
# chain: MLYHLFVNNQIKLQDDFKAEAVATIRSSVFNSKGGTTVFNFLSAGENILLHISIRPGENAIVFNSRTKGGAWGPEERVPYAGKFKGPNPSITVLDHGDRFQILFDNATAIYYTKRIKENAAAIAYSAENSLFSSPVTVDIHGLLPPLPPA
# notes: galectin CGL1 of Coprinopsis cinerea, full-length cgl1 amplified from genomic DNA of strain Okayama 7 (#130; ATCC MYA-4618), cloned into pET22b(+); No removal of the tag is told
# Molecular target: the molecule itself
# Experiment: dynamic light scattering; dilutions of the purified galectin filtered through 0.22 µm membranes, Zetasizer Nano-S; molecular weight estimated from the hydrodynamic radius; self-association, tetramer
protein,measurement,value
B1,stoichiometry N,4
